From PMC5107993, “Glutathione-conjugating and membrane-remodeling activity of GDAP1 relies on amphipathic C-terminal domain” (Scientific Reports, 2016)

B1: GDAP1 T288X-6xHis (domain or fragment, human, UniProt Q8TB36 1-287, looked up)
chain: MAERQEEQRGSPPLRAEGKADAEVKLILYHWTHSFSSQKVRLVIAEKALKCEEHDVSLPLSEHNEPWFMRLNSTGEVPVLIHGENIICEATQIIDYLEQTFLDERTPRLMPDKESMYYPRVQHYRELLDSLPMDAYTHGCILHPELTVDSMIPAYATTRIRSQIGNTESELKKLAEENPDLQEAYIAKQKRLKSKLLDHDNVKYLKKILDELEKVLDQVETELQRRNEETPEEGQQPWLCGESFTLADVSLAVTLHRLKFLGFARRNWGNGKRPNLETYYERVLKRK
notes: GDAP1, human (recombinant human GDAP1), truncated by a stop in place of T288 (T288X), lacks TMD and HD1; cloned into vector pFL of the MultiBac system; not shown: His6, C-terminal, kept
B2: GDAP1 T318X-6xHis (domain or fragment, human, UniProt Q8TB36 1-317, looked up)
chain: MAERQEEQRGSPPLRAEGKADAEVKLILYHWTHSFSSQKVRLVIAEKALKCEEHDVSLPLSEHNEPWFMRLNSTGEVPVLIHGENIICEATQIIDYLEQTFLDERTPRLMPDKESMYYPRVQHYRELLDSLPMDAYTHGCILHPELTVDSMIPAYATTRIRSQIGNTESELKKLAEENPDLQEAYIAKQKRLKSKLLDHDNVKYLKKILDELEKVLDQVETELQRRNEETPEEGQQPWLCGESFTLADVSLAVTLHRLKFLGFARRNWGNGKRPNLETYYERVLKRKTFNKVLGHVNNILISAVLPTAFRVAKKRAP
notes: GDAP1, human (recombinant human GDAP1), truncated by a stop in place of T318 (T318X), lacks the TMD, keeps HD1; cloned into vector pFL of the MultiBac system; the methods print the name as T3188X; also called GDAP1 T3188X; not shown: His6, C-terminal, kept

Target: the molecule itself
Assay: SEC; Superdex 200 10/300 in 20 mM Tris pH 8.0, 100 mM NaCl, 1 mM DTT, 1 mM EDTA; peak fractions re-chromatographed under identical conditions; monomer to dimer

Protein	stoichiometry N
B1	2
B2	2
